Assay results from patent US20180305409A1 (SHAANXI MICOT TECHNOLOGY, published 2018).
Bridge positions count the residues as written; N and C are the ends. Square brackets hold non-standard residues; d marks the D form. Ends that are not written are not given here. hArg = N=C(N)NCCCC[C@H](N)C(=O)O

B1: polypeptide 3 (peptide)
peptide: FPRPGGGGNGDFEEIPEEYLCXGDWPC
modifications: D-Phe at position 1 (N-terminal); Har (homoarginine) at position 22; disulfide bond between the two Cys (21 and 27)

How the values were obtained:
human thrombin = human thrombin (human, UniProt P00734 328-622); test: cell-based or functional assay
[1] = target: platelet GPIIb/IIIa receptor (human, UniProt P08514 32-1039; P05106 27-788); test: cell-based or functional assay
Sequence of platelet GPIIb/IIIa receptor (P08514 32-1039, chain 1 of 2): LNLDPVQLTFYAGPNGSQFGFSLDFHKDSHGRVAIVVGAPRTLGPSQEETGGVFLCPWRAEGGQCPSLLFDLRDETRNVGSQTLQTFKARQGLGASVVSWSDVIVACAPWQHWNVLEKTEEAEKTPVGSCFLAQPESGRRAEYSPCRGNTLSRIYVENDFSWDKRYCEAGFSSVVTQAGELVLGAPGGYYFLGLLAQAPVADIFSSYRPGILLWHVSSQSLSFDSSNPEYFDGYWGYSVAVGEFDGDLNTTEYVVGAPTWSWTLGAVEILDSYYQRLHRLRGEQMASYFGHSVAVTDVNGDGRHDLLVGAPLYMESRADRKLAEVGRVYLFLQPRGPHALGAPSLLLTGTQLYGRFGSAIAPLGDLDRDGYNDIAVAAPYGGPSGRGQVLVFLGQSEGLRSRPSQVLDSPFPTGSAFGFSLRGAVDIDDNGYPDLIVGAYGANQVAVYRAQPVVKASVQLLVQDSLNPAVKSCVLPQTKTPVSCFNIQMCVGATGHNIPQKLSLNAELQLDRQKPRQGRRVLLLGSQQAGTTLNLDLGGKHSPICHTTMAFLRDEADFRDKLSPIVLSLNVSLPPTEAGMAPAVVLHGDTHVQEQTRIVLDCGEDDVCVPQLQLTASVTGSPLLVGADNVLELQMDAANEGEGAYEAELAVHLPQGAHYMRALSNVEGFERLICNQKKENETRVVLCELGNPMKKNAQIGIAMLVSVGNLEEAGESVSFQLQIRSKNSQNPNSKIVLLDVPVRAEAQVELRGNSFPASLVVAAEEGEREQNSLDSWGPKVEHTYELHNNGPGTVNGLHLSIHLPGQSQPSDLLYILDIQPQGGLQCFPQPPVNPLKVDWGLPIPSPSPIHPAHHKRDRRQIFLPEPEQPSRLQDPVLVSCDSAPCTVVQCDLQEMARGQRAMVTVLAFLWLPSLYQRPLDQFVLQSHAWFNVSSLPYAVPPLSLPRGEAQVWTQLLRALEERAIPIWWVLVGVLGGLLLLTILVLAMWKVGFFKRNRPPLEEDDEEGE
Sequence of platelet GPIIb/IIIa receptor (P05106 27-788, chain 2 of 2): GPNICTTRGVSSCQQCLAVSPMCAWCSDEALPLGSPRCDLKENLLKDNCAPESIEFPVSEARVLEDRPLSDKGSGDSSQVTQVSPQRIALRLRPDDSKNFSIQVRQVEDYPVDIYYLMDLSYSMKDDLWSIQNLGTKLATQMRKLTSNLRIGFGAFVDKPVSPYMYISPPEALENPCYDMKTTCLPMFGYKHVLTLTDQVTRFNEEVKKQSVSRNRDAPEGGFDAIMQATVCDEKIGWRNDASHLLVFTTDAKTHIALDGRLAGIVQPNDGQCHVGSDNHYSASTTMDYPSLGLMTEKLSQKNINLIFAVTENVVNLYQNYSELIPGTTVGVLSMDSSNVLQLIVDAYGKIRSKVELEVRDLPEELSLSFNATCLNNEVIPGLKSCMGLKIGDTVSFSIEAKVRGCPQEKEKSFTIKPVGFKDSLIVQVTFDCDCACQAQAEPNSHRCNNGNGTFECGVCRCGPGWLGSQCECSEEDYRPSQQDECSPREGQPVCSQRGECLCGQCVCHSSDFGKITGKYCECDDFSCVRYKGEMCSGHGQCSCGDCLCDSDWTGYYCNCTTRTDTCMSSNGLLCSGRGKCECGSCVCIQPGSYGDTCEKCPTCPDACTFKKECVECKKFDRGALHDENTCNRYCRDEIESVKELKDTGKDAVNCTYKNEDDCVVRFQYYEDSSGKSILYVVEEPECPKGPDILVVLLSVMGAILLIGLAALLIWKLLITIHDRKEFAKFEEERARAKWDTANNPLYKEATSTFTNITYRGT

Binder | APTT(S), human platelet poor plasma in vitro, 1 × 10^-6 mol/L (saline 33.10) (human thrombin) [s] | Fold of Prolongation in APTT, 1 × 10^-6 mol/L (human thrombin) [fold] | Fold of Prolongation in PT, 1 × 10^-6 mol/L (human thrombin) [fold] | PT(S), human platelet poor plasma in vitro, 1 × 10^-6 mol/L (saline 11.22) (human thrombin) [s] | TT(S), human platelet poor plasma in vitro, 1 × 10^-6 mol/L (saline 14.07) (human thrombin) [s] | Inhibitory rate of platelet aggregation (%), ADP-induced human platelet aggregation in vitro, 1 × 10-5 mol/L [1] [%] | Inhibitory rate of platelet aggregation (%), ADP-induced human platelet aggregation in vitro, 3 × 10-6 mol/L [1] [%] | Platelet aggregation rate (%), ADP-induced human platelet aggregation in vitro, 1 × 10-5 mol/L (saline 73.39) [1] [%] | Platelet aggregation rate (%), ADP-induced human platelet aggregation in vitro, 3 × 10-6 mol/L (saline 73.39) [1] [%]
B1 | 102 | 2.94 | 2.14 | 25.7 | > 180 | 47.1 | 26.4 | 35.4 | 57.9
[dF]PRPGGGGNGRFEEIPEEYLEAAAKC[hArg]GDWPC (disulfide 26-32) [polypeptide 2] | 104 | 3.35 | 3.04 | 34.8 | > 180 | 100 | 66.7 | 0 | 26.1
